Experimental data reported in paper PMC11033526, “Direct binding of calmodulin to the cytosolic C-terminal regions of sweet/umami taste receptors” (Journal of Biochemistry, 2023).

Tests used:
[1] = molecular target: biotin-mT1r1 CT peptide (cytosolic C-terminal region of mouse taste receptor type 1 subunit 1) (mouse) (UniProt Q99PG6); experiment: SPR; Biacore 2000; biotinylated T1r peptides on a CAP chip (Biotin CAPture Kit); mCaM injected, 2-fold dilutions from 50 μM, -Ca2+ (1 mM EGTA), 25°C, 30 μl/min
Chain of biotin-mT1r1 CT peptide (cytosolic C-terminal region of mouse taste receptor type 1 subunit 1) (mouse) (Q99PG6 other isoform, or with tags, fused parts or gaps): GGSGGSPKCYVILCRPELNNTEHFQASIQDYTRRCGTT

[2] = molecular target: biotin-mT1r3 CT peptide (cytosolic C-terminal region of mouse taste receptor type 1 subunit 3) (mouse) (UniProt Q925D8); experiment: as above
Chain of biotin-mT1r3 CT peptide (cytosolic C-terminal region of mouse taste receptor type 1 subunit 3) (mouse) (Q925D8 other isoform, or with tags, fused parts or gaps): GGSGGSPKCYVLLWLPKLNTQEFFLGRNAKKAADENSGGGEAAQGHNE

[3] = molecular target: biotin-mT1r2 CT peptide (cytosolic C-terminal region of mouse taste receptor type 1 subunit 2) (mouse) (UniProt Q925I4); experiment: as above
Chain of biotin-mT1r2 CT peptide (cytosolic C-terminal region of mouse taste receptor type 1 subunit 2) (mouse) (Q925I4 other isoform, or with tags, fused parts or gaps): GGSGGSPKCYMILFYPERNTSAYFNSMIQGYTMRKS

[4] = molecular target: FLAG-ySUMO-mT1r3 CTΔ (mouse); experiment: SPR; Biacore 2000; ySUMO-fusion proteins amine-coupled on a CM5 chip, ySUMO on the reference cell; mCaM injected, 2-fold dilutions from 40 μM, +Ca2+ (1 mM CaCl2), 25°C, 30 μl/min; KD from equilibrium responses, 1:1 model
[5] = molecular target: FLAG-ySUMO-mT1r2 CTΔ (mouse); experiment: as above
[6] = molecular target: biotin-mT1r1 CT peptide (cytosolic C-terminal region of mouse taste receptor type 1 subunit 1) (mouse) (UniProt Q99PG6); experiment: SPR; Biacore 2000; biotinylated T1r peptides on a CAP chip (Biotin CAPture Kit); mCaM injected, 2-fold dilutions from 50 μM, +Ca2+ (1 mM CaCl2), 25°C, 30 μl/min; KD from equilibrium responses, 1:1 model
[7] = molecular target: biotin-mT1r3 CT peptide (cytosolic C-terminal region of mouse taste receptor type 1 subunit 3) (mouse) (UniProt Q925D8); experiment: as above
[8] = molecular target: biotin-mT1r2 CT peptide (cytosolic C-terminal region of mouse taste receptor type 1 subunit 2) (mouse) (UniProt Q925I4); experiment: as above
[9] = molecular target: FLAG-ySUMO-mT1r3 CTΔ (mouse); experiment: SPR; Biacore 2000; ySUMO-fusion proteins amine-coupled on a CM5 chip, ySUMO on the reference cell; mCaM injected, 2-fold dilutions from 40 μM, -Ca2+ (1 mM EGTA), 25°C, 30 μl/min
[10] = molecular target: FLAG-ySUMO-mT1r2 CTΔ (mouse); experiment: as above

“mouse calmodulin (from UniProt P0DP26 1-149) (natural protein)” showed a response at 50 μM mCaM injection [1] of 5 RU, a response at 50 μM mCaM injection [2] of 16 RU and a response at 50 μM mCaM injection [3] of 9.4 RU. For the same substance, the Kd [4] was 80 µM, the Req value at 40 μM mCaM injection [4] was 101 RU and the Kd [5] was 41 µM. It also gave a Req value at 40 μM mCaM injection [5] of 114 RU, a Req value at 25 μM mCaM injection [6] of 10.6 RU and a Req value at 50 μM mCaM injection [7] of 36.7 RU. For the same substance, the Req value at 50 μM mCaM injection [8] was 11 RU, the response at 40 μM mCaM injection [9] was 13 RU and the response at 40 μM mCaM injection [10] was 9.2 RU.
